Assay [1] addresses T1, MLO-Y4 cell surface proteins (Mus musculus, UniProt Q9DCW4).
T1 construct: endogenous in cells; host or cells: MLO-Y4
T1 sequence (Q9DCW4 1-255): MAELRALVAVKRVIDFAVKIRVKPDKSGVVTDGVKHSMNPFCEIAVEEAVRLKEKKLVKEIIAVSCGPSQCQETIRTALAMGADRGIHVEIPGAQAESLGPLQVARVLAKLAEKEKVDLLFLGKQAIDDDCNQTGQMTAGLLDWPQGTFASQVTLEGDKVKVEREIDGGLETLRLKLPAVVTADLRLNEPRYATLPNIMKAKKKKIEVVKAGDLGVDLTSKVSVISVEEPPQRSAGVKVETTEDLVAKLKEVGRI
The experiment in a line: Crosslinking/co-immunoprecipitation/mass spectrometry (TMT quantitative proteomics) to identify irisin receptors. The assay is classed as binding. To be noted: co-precipitated protein Etfb (ETFB_MOUSE). An outline of the steps:
(§1)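 Relative protein abundance came from 6-plex TMT MS3 quantitation on an Orbitrap Fusion Lumos, after in-gel trypsin digestion of Coomassie-stained SDS-PAGE lanes. Input was a Ni-NTA pulldown (250 mM imidazole elution) of lysates from murine MLO-Y4 cells. These cells were treated on ice with His-tagged irisin or adipsin (10 nM, 20 min) in serum-free medium, then crosslinked with 1.5 mM DTSSP for 30 min.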

Assay [2] deals with T2, MLO-Y4 cell surface proteins (Mus musculus, UniProt E9PW83).
T2 construct: endogenous in cells; host or cells: MLO-Y4
T2 sequence (E9PW83 1-1143): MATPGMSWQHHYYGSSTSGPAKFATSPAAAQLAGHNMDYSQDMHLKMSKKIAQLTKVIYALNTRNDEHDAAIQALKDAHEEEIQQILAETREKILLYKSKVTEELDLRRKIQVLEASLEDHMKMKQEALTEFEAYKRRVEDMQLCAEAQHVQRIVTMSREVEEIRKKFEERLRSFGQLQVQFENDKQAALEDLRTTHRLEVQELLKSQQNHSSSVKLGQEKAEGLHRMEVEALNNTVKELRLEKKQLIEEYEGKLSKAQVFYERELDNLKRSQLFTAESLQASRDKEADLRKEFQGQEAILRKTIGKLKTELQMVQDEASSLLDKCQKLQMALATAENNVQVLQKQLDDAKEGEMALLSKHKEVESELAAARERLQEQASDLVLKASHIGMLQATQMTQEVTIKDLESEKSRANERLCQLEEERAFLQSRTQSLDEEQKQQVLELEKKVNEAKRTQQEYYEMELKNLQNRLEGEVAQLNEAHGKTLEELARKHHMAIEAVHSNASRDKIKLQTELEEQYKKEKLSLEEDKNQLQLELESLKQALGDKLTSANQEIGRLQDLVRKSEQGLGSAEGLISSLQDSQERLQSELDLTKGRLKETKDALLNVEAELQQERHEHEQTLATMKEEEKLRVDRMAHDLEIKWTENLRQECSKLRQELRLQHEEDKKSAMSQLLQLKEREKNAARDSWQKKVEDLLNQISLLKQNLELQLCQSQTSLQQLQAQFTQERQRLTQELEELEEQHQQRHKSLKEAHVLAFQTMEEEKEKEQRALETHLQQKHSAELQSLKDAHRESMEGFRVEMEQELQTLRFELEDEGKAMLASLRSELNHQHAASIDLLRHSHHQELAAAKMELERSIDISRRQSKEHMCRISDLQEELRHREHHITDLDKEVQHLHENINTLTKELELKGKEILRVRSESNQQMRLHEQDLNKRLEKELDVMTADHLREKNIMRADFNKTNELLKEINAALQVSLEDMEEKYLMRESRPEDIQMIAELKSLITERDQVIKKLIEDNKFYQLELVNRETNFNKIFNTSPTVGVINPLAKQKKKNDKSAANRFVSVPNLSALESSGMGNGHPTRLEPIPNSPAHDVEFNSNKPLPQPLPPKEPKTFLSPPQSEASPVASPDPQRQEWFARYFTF
Described as above. In kind it is binding. To be noted: co-precipitated protein Fam184a (E9PW83_MOUSE). In short, it runs like this:
as §1

For the substance adipsin, the TMT signal-to-noise ratio in assay [1] was determined as 730.275; in assay [2], 877.972.

The record behind these values is patent publication US20210063414A1, “METHODS FOR PREVENTING AND/OR TREATING BONE LOSS CONDITIONS BY MODULATING IRISIN” (Dana-Farber Cancer Institute, Inc., priority 2018, published 2021).
